{"source": "paper PMC9038728", "about": "“Development of broadly neutralizing antibodies targeting the cytomegalovirus subdominant antigen gH” (Communications Biology, 2022)", "binders": {"B1": {"name": "MSL-109 (antibody, V domains shown)", "VH": "EEQVLESGGGLVKPGGSLRLSCAASGFTFSPYSVFWVRQAPGKGLEWVSSINSDSTYKYYADSVKGRFTISRDNAENSIFLQMNSLRAEDTAVYYCARDRSYYAFSSGSLSDYYYGLDVWGQGTLVTVSS", "VL": "DIVMTQSPLSLSVTPGEPASISCRSSQSLLHTNGYNYLDWYVQKPGQSPQLLIYLASNRASGVPDRFSGSGSGTDFTLKISRVETEDVGVYYCMQALQIPRTFGQGTKVEIK", "notes": "Human IgG1 constant region from the pFuse vector (InvivoGen); Human kappa constant region from the pFuse vector (InvivoGen); Human IgG1 kappa; source: HEK-293, heavy and light chain co-transfected, purified from the cell supernatant"}}, "biological_target": "T1, HCMV gH/gL complex expressed in U373 astrocytoma cells (Human cytomegalovirus (HHV-5), strain …, UniProt P12824;P16832)", "T1 construct": "Human cytomegalovirus envelope glycoprotein H (gH); Human cytomegalovirus envelope glycoprotein L (gL); The immunisation plasmid and the peptide array used TB40/E gH, but no strain is named for the U373 cells; also called gH/gL-dimer; U373-gH/gL", "assay": "flow cytometry on cells; Competition of the anti-gH mAbs with MSL-109. The set-up for MSL-109 is not told. The competition assay in the methods uses fixed, permeabilised U373-gH/gL cells, AF647-labelled antibody plus unlabelled antibody, 4 °C, 1 h.", "details": "one partner purified", "data": [{"binder": "B1", "values": [{"measurement": "binding result", "value": "binds"}]}]}
